Measurements as given in US20130344509A1 (published 2013).

Key:
[1] = target: T1, human TROP-2 (hTROP-2) protein endogenously expressed on the cell surface of human cancer cell lines (human, UniProt P09758 27-323); assay: FACS on PK-59 cells, 0.1 µg antibody
T1 construct: on PK-59, BxPC-3 and other human cancer cell lines, or in human tissue sections; also called TACSTD2; GA733-1
T1 sequence: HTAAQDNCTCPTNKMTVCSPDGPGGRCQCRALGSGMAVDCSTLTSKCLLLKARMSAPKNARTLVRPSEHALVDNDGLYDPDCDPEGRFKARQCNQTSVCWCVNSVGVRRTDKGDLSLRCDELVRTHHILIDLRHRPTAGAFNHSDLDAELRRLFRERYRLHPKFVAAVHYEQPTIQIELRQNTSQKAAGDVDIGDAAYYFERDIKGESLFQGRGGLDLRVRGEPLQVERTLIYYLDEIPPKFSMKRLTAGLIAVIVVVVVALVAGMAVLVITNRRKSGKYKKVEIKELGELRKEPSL
Procedure: (§1) Cancer cells were removed from a culture dish by a trypsin treatment, and a cell suspension was then prepared (cell density: 2×10⁶ cells/mL). An anti-hTROP-2 monoclonal antibody (0.1 μg) was added to 100 μL of the cell suspension, and they were then reacted at 4° C. for 20 minutes. The reaction solution was washed with PBS, and it was then reacted with PE-labeled anti-mouse IgG (BD Biosciences Pharmingen) (0.1 μg) (at 4° C. for 30 minutes). Thereafter, the resultant was analyzed by FACSCalibur (Becton, Dickinson and Company).
(§2) Subsequently, the reactivity of the generated anti-hTROP-2 monoclonal antibodies with human cancer cell lines (in which an hTROP-2 protein was endogenously expressed on the cell surface) was examined by FACS analysis.

[2] = target: T1, human TROP-2 (hTROP-2) protein …; assay: FACS on BxPC-3 cells, 0.1 µg antibody
Procedure: as §1, §2

Table 9 peptide No. 26 = target: T2, Table 9 peptide No. 26; assay: PEPSCAN/CLIPS peptide ELISA, 1 µg/mL antibody
T2 sequence (peptide): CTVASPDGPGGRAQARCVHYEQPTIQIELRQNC

B1: anti-hTROP-2 monoclonal antibody clone K5-116-2-1 (antibody, V domains shown)
VH: QVQLQQPGAELVRPGASVKLSCKASGYTFTSYWITWVKQRPGQGLEWIGNIYPSDSYTNYNQKFRDKATLTVDKSSSTAYMQLSSPTSEDSAVYYCSALFDYWGQGTTLTVSS
VL: DILLTQSPAILSVSPGERVSFSCRASQSIGTSIHWYQQRTNGSPRLLIKYASESISGIPSRFSGSGSGTDFILSINSVESEDIADYYCQQSNSWPFTFGSGTKLEIK
notes: mouse IgG2a; hybridoma FERM BP-11253
[1]
  mean fluorescence intensity relative to PE-labeled anti-mouse IgG alone: 122 times
[2]
  mean fluorescence intensity relative to PE-labeled anti-mouse IgG alone: 121 times
Table 9 peptide No. 26
  binding of K5-116-2-1: 1220
